Source: patent publication US20220259283A1 (AARHUS UNIVERSITET, published 2022)

T1: sortilin (human, UniProt Q99523)
T1 construct: soluble, 6his-tagged; Injected at 25-250 nM over immobilized progranulin-6his as a comparison with SorCS2; also called hSortilin-6his; soluble human sortilin
T1 sequence (receptor, soluble form, looked up): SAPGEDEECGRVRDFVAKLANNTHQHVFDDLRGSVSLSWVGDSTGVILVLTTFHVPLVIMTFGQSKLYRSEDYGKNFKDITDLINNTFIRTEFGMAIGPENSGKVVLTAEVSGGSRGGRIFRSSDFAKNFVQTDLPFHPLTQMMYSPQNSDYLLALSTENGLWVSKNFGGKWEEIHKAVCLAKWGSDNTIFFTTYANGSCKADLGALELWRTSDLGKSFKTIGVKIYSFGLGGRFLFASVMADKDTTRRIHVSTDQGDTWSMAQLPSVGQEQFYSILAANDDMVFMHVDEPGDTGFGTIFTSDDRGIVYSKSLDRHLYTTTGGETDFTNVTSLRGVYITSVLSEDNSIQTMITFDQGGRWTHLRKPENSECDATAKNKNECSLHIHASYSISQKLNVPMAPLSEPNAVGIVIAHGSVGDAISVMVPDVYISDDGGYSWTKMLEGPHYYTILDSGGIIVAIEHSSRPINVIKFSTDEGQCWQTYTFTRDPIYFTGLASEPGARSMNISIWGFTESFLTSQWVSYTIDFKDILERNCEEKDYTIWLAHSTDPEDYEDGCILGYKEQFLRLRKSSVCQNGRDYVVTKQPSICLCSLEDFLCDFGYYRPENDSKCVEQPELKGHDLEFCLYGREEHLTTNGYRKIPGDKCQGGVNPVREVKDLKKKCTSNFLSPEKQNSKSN

B1: hPGRN-6his (human progranulin with a C-terminal 6his-tag) (ligand)
chain: TRCPDGQFCPVACCLDPGGASYSCCRPLLDKWPTTLSRHLGGPCQVDAHCSAGHSCIFTVSGTSSCCPFPEAVACGDGHHCCPRGFHCSADGRSCFQRSGNNSVGAIQCPDSQFECPDFSTCCVMVDGSWGCCPMPQASCCEDRVHCCPHGAFCDLVHTRCITPTGTHPLAKKLPAQRTNRAVALSSSVMCPDARSRCPDGSTCCELPSGKYGCCPMPNATCCSDHLHCCPQDTVCDLIQSKCLSKENATTDLLTKLPAHTVGDVKCDMEVSCPDGYTCCRLQSGAWGCCPFTQAVCCEDHIHCCPAGFTCDTQKGTCEQGPHQVPWMEKAPAHLSLPDPQALKRDVPCDNVSSCPSSDTCCQLTSGEWGCCPIPEAVCCSDHQHCCPQGYTCVAEGQCQRGSEIVAGLEKMPARRASLSHPRDIGCDQHTSCPVGQTCCPSLGGSWACCQLPHAVCCEDRQHCCPAGYTCNVKARSCEKEVVSAQPATFLARSPHVGVKDVECGEGHFCHDNQTCCRDNRQGWACCPYRQGVCCADRRHCCPAGFRCAARGTKCLRREAPRWDAPLRDPALRQLLHHHHHH
notes: Purified protein; also called progranulin-6his; human progranulin-6his

Legend:
[1] = target: T2, hSorCS2-6his (extracellular domain of human SorCS2 with a C-terminal 6His-tag) (human, UniProt Q96PQ0 51-1076); assay: microscale thermophoresis, 25 nM labelled hSorCS2-6his, partner titrated, triplicates
T2 construct: Made in CHO-K1 cells and purified from the medium; For crystallisation the protein was deglycosylated with PNGaseF; also called soluble human SorCS2; hSorCS2 extracellular domain
Procedure: Equilibrium-binding affinities between hSorCS2 and hPGRN-6his, GrnE and RQLL peptide were assessed by MST. Purified hSorCS2-6his was labelled using the MO-003 monolith blue-NHS labelling kit according to manufactures recommendation. hSorCS2 was applied at a final concentration of 25 nM while the unlabelled binding partner was titrated in 1:1 dilutions (PBS+0.05% Tween20). MST measurements were performed in standard treated capilaiers on a monolith NT.115 instrument. For each binding partner the sigmoid-dose response curve was fitted with GraphPad prism 6 to yield an average dissociation constant.

[2] = target: T2, hSorCS2-6his (extracellular domain of …); assay: SPR, hPGRN-6his injected over hSorCS2-6his immobilized on a CM5 chip
Procedure: (§1) Purified hPGRN-6his or hSorCS2-6his was immobilized on a CM5 sensor chip using standard amine-coupling. All sensograms were collected in PBS+0.05% Tween20 following injection of purified hPGRN-6his over immobilized hSorCS2-6his or hSortilin-6his and hSorCS2-6his with/without PGRN derived peptide over immobilized hPGRN-6his. Following this experimental setup we estimated the dissociation constant of the hSorCS2:hPGRN interaction to be 15 nM (FIG. 4). […] Inhibition experiments was performed using 100 nM hSorCS2 preincubated with 100 uM PGRN-derived tetra peptide and injected over immobilized hPGRN-6his (FIG. 7).

[3] = target: T2, hSorCS2-6his (extracellular domain of …); assay: SPR, hSorCS2-6his injected over hPGRN-6his immobilized on a CM5 chip
Procedure: as §1

sortilin = target: T1, sortilin; assay: SPR, soluble human sortilin injected over immobilized C-terminal his-tagged progranulin on a CM5 chip
Procedure: as §1

[4] = target: B1; assay: SPR, RQLL peptide alone injected over immobilized C-terminal his-tagged progranulin on a CM5 chip (control trace of the competition experiment)
Procedure: as §1

T2 sequence (Q96PQ0 other isoform, or with tags, fused parts or gaps): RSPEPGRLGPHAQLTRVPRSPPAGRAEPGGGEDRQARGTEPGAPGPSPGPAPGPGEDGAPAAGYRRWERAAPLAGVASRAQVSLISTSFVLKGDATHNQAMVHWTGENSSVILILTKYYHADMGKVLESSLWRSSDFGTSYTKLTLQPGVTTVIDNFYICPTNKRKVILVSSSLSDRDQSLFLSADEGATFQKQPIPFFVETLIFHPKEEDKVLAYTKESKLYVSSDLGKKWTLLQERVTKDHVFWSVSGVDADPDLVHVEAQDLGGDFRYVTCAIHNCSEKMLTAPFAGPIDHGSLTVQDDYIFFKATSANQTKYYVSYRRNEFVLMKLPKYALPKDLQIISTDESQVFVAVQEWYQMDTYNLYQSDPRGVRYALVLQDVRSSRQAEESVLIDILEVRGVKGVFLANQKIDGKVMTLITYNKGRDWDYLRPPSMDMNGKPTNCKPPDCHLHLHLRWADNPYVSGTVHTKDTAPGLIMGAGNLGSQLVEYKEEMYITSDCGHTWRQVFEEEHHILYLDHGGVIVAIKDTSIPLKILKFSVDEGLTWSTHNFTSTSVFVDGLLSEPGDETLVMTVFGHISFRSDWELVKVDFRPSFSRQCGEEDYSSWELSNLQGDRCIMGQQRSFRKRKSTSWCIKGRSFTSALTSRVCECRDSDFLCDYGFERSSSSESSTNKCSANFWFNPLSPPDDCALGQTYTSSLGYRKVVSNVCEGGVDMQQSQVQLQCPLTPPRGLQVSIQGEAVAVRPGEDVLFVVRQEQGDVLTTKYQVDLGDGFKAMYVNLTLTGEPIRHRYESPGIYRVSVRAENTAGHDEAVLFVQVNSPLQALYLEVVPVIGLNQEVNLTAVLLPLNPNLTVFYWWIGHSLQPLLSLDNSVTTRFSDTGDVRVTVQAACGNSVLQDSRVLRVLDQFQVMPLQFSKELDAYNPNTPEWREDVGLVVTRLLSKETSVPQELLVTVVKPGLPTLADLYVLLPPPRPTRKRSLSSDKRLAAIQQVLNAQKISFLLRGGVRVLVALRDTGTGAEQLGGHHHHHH

Kd [1] [nM]	Kd [2] [nM]	Kd [3] [nM]	binding result (sortilin)	binding result [4]	Binder
2000					Granulin E (ligand, UniProt P28799 518-593, looked up, domain: Granulin E; also called GrnE) DVECGEGHFCHDNQTCCRDNRQGWACCPYRQGVCCADRRHCCPAGFRCAARGTKCLRREAPRWDAPLRDPALRQLL
47.8	15	7.4	no binding (tested: 250 nM)		B1
1000				no binding (tested: 100 uM)	RQLL (also called RQLL peptide; PGRN-derived tetra peptide) [tetrapeptide RQLL]
